Tests used:
Experiment in all cases: peptide EIA, 2 ug/mL IgG;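 further: purified mouse IgG binding to individually well-coated synthetic peptides, detected with peroxidase anti-mouse IgG Fc and o-phenylenediamine, IgG incubated at least 1 h at room temperature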
HCV core peptide 42 = molecular target: T1, HCV core peptide 42 (hepatitis C virus, N-terminal biotin; C-terminal amide)
T1 construct: range 83-97

HCV core peptide 5 = molecular target: T2, HCV core peptide 5 (hepatitis C virus, N-terminal biotin; C-terminal amide)
T2 construct: range 9-23

HCV core peptide 48 = molecular target: T3, HCV core peptide 48 (hepatitis C virus, HELM PEPTIDE1{[O=C1N[C@H]2[C@H](CS[C@H]2CCCCC(=O)[*:2])N1].S.G.S.G.G.W.L.L.S.P.R.G.S.R.P.S.W.G.P.[am]}$$$$V2.0; SMILES …)
T3 construct: also called aa 95-109
T3 peptide: SGSGGWLLSPRGSRPSWGP

HCV core peptide 79 = molecular target: T4, HCV core peptide 79 (hepatitis C virus, N-terminal biotin; C-terminal amide)
T4 construct: range 157-171

HCV core peptide 29 = molecular target: T5, HCV core peptide 29 (hepatitis C virus, N-terminal biotin; C-terminal amide)
T5 construct: range 57-71

HCV core peptide 89 = HCV core peptide 89 (hepatitis C virus, N-terminal biotin; C-terminal amide)
HCV core peptide 19 = molecular target: T6, HCV core peptide 19 (hepatitis C virus, N-terminal biotin; C-terminal amide)
T6 construct: range 37-51

HCV core peptide 55 = molecular target: T7, HCV core peptide 55 (hepatitis C virus, HELM PEPTIDE1{[O=C1N[C@H]2[C@H](CS[C@H]2CCCCC(=O)[*:2])N1].S.G.S.G.P.T.D.P.R.R.R.S.R.N.L.G.K.V.I.[am]}$$$$V2.0; SMILES …)
T7 construct: also called aa 109-123
T7 peptide: SGSGPTDPRRRSRNLGKVI

HCV core peptide 43 = molecular target: T8, HCV core peptide 43 (hepatitis C virus, N-terminal biotin; C-terminal amide)
T8 construct: range 85-99

HCV core peptide 26 = molecular target: T9, HCV core peptide 26 (hepatitis C virus, N-terminal biotin; C-terminal amide)
T9 construct: range 51-65

HCV core peptide 13 = molecular target: T10, HCV core peptide 13 (hepatitis C virus, N-terminal biotin; C-terminal amide)
T10 construct: range 25-39

HCV core peptide 7 = molecular target: T11, HCV core peptide 7 (hepatitis C virus, N-terminal biotin; C-terminal amide)
T11 construct: range 13-27

HCV core peptide 56 = HCV core peptide 56 (hepatitis C virus, N-terminal biotin; C-terminal amide)
HCV core peptide 66 = HCV core peptide 66 (hepatitis C virus, N-terminal biotin; C-terminal amide)
HCV core peptide 47 = HCV core peptide 47 (hepatitis C virus, N-terminal biotin; C-terminal amide)
HCV core peptide 84 = HCV core peptide 84 (hepatitis C virus, N-terminal biotin; C-terminal amide)
HCV core peptide 23 = molecular target: T12, HCV core peptide 23 (hepatitis C virus, N-terminal biotin; C-terminal amide)
T12 construct: range 45-59

HCV core peptide 65 = HCV core peptide 65 (hepatitis C virus, N-terminal biotin; C-terminal amide)
HCV core peptide 33 = molecular target: T13, HCV core peptide 33 (hepatitis C virus, N-terminal biotin; C-terminal amide)
T13 construct: range 65-79

HCV core peptide 30 = molecular target: T14, HCV core peptide 30 (hepatitis C virus, N-terminal biotin; C-terminal amide)
T14 construct: range 59-73

HCV core peptide 22 = molecular target: T15, HCV core peptide 22 (hepatitis C virus, N-terminal biotin; C-terminal amide)
T15 construct: range 43-57

HCV core peptide 63 = HCV core peptide 63 (hepatitis C virus, N-terminal biotin; C-terminal amide)
HCV core peptide 50 = molecular target: T16, HCV core peptide 50 (hepatitis C virus, HELM PEPTIDE1{[O=C1N[C@H]2[C@H](CS[C@H]2CCCCC(=O)[*:2])N1].S.G.S.G.S.P.R.G.S.R.P.S.W.G.P.T.D.P.R.[am]}$$$$V2.0; SMILES …)
T16 construct: also called aa 99-113
T16 peptide: SGSGSPRGSRPSWGPTDPR

HCV core peptide 4 = molecular target: T17, HCV core peptide 4 (hepatitis C virus, N-terminal biotin; C-terminal amide)
T17 construct: range 7-21

HCV core peptide 38 = molecular target: T18, HCV core peptide 38 (hepatitis C virus, N-terminal biotin; C-terminal amide)
T18 construct: range 75-89

HCV core peptide 21 = molecular target: T19, HCV core peptide 21 (hepatitis C virus, N-terminal biotin; C-terminal amide)
T19 construct: range 41-55

HCV core peptide 49 = molecular target: T20, HCV core peptide 49 (hepatitis C virus, HELM PEPTIDE1{[O=C1N[C@H]2[C@H](CS[C@H]2CCCCC(=O)[*:2])N1].S.G.S.G.L.L.S.P.R.G.S.R.P.S.W.G.P.T.D.[am]}$$$$V2.0; SMILES …)
T20 peptide: SGSGLLSPRGSRPSWGPTD

HCV core peptide 17 = molecular target: T21, HCV core peptide 17 (hepatitis C virus, N-terminal biotin; C-terminal amide)
T21 construct: range 33-47

HCV core peptide 88 = HCV core peptide 88 (hepatitis C virus, N-terminal biotin; C-terminal amide)
HCV core peptide 6 = molecular target: T22, HCV core peptide 6 (hepatitis C virus, N-terminal biotin; C-terminal amide)
T22 construct: range 11-25

Measured: OD (A492 nm)

B1: Neo4 mouse monoclonal antibody (antibody, V domains shown)
VH: QIQLKESGPAVIKPSQSLSLTCIVSGFSITSSVYCWQWIRQPPGKGLEWMGRICYDGSVDYSPSITSRGTISRDTSLNKVFFQLSSVTNEDTAMYYCSRENHIDYYDTTYPSFDVWGAGTTVTVSS
VL: DIVLTQSPASLIVSLGQRATISCRASKSVNEYGYTYMHWYQQKPGLPPKLLIYLASNLDSGVPARFSGSGSGTDFTLNIHPVEEEDAATYYCQHSRELPYTFGGGTKLEIKR
notes: Mouse hybridoma antibody, isotype IgG1, purified with Protein G; also called HCV Neo4
0.97 OD: HCV core peptide 55
0.06 OD: HCV core peptide 4 | HCV core peptide 6
1.03 OD: HCV core peptide 50
0.04 OD: HCV core peptide 42 | HCV core peptide 48 | HCV core peptide 29 | HCV core peptide 26 | HCV core peptide 56 | HCV core peptide 65 | HCV core peptide 63 | HCV core peptide 17
0.07 OD: HCV core peptide 7 | HCV core peptide 22
0.05 OD: all other assays above

Reference: US20190170753A1 (ICAHN SCHOOL OF MEDICINE AT MOUNT SINAI, published 2019)
